Laboratory results: patent US20230270894A1 (Regeneron, published 2023)

T1: human LAG3 (lymphocyte activation gene-3 protein, CD223), expressed on cells (human, UniProt P18627 23-525)
T1 sequence: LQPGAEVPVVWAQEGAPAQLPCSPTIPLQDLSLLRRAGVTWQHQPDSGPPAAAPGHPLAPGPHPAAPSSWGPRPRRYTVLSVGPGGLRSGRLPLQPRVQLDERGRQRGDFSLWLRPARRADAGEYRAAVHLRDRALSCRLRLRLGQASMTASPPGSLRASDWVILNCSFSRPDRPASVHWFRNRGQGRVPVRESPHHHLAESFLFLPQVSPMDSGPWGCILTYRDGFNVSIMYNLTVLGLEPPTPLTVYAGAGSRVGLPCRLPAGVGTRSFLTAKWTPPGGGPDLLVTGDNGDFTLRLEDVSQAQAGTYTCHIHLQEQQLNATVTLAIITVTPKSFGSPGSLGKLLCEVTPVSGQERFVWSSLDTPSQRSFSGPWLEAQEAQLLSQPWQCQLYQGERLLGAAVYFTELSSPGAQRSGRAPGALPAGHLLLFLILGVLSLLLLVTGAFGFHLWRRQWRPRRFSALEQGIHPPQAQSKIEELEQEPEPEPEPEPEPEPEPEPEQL


Assays:
[1] = molecular target: human LAG3 (lymphocyte activation gene-3 protein, CD223), expressed on cells (human) (UniProt P18627); assay: cell-based or functional assay
[2] = molecular target: T1, human LAG3 (lymphocyte activation …); assay: cell-based or functional assay

ex vivo biodistribution, tumor uptake (AVERAGE % ID/G) in MC38/ova/LAG3 tumors of NCr nude mice, 6 days post-dosing [1] | Tumor-to-blood ratio (average), Raji/hPBMC tumors, day 6, protein dose 0.03 mg/kg [2] | Tumor-to-blood ratio (average), Raji/hPBMC tumors, day 6, protein dose 0.1 mg/kg [2] | Tumor-to-blood ratio (average), Raji/hPBMC tumors, day 6, protein dose 0.3 mg/kg [2] | Tumor-to-blood ratio (average), Raji/hPBMC tumors, day 6, protein dose 5 mg/kg [2] | Molecule
7.8 % ID/g |  |  |  |  | 89Zr-DFO-conjugated isotype control antibody
 | 9.71 ratio | 5.44 ratio | 3.46 ratio | 1.1 ratio | 89Zr-DFO-mAb1 (anti-LAG3 antibody H4sH15482P conjugated with p-SCN-Bn-DFO and radiolabeled with 89Zr) (antibody, V domains shown) VH: QVQLVESGGGVVQPGRSLRLSCVASGFTFSSYGMHWVRQAPGKGLEWVAIIWYDGSNKYYADSVKGRFTISRDNSKNTQYLQMNSLRAEDTAVYYCASVATSGDFDYYGMDVWGQGTTVTVSS VL: EIVLTQSPATLSLSPGERTTLSCRASQRISTYLAWYQQKPGQAPRLLIYDASKRATGIPARFSGSGSGTGFTLTISSLEPEDFAVYYCQQRSNWPLTFGGGTKVEIK
